T1: hIL-7R (Example 11) (human, UniProt P16871 21-239)
T1 construct: Called full length hIL-7R for the mRNA display and hIL-7R for the Biacore runs; also called full length hIL-7R; human IL-7R
T1 chain: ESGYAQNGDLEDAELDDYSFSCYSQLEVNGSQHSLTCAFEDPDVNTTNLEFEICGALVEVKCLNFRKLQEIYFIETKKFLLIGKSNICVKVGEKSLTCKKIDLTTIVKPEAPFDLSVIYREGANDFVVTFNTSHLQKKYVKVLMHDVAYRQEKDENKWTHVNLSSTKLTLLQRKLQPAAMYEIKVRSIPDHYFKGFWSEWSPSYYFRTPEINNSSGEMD


Experiments:
[1] = target: T1, hIL-7R (Example 11); assay: SPR (Biacore), ratio KD of parent 18B1 to KD of variant [cont'd]
Description: (§1) Affinity (KD) of each variant binding to hIL-7R was obtained using this approach, and compared against the enrichment ratio (ER) obtained through NGS heat map analysis for the same variant.

[2] = target: T1, hIL-7R (Example 11); assay: NGS enrichment ratio of the mutation in the scFv library selected at 0.2 nM hIL-7R [cont'd]
Description: (§2) All six CDRs of the antibody were mutated, with each position in the CDR mutated to all possible amino acids at that position. […] FIGS. 17A and 17B provide a schematic of the overall process.

[3] = target: T1, hIL-7R (Example 11); assay: SPR (Biacore), ratio KD of parent 18B1 to KD of variant
Description: as §1

[4] = target: T1, hIL-7R (Example 11); assay: NGS enrichment ratio of the mutation in the scFv library selected at 0.2 nM hIL-7R
Description: as §2

Binder | KD Relative to 18B1 [1] | 0.2 nM NGS [2] | KD Relative to 18B1 [3] | 0.2 nM NGS [4]
18B1 LC D50A (antibody, human IgG1, kappa, V domains shown) VH: EVQLVESGGGLVQPGRSLRLSCAASGFTFDDHAMHWVRQAPGKGLEWVSGISWNSRGIGYADSVKGRFTIFRDNAKNSLYLQMNSLRAEDTALYYCAKDEYSRGYYVLDVWGQGTTVTVSS VL: AIQLTQSPSSLSASVGDRVTITCRASQGISSALAWYQQKPGKAPKLLIYAASSLESGVPSRFSGSGSGTDFTLTISSLQPEDFATYYCQQFNSYPLWITFGQGTRLEIKR | 0.77 | 0.3 | – | –
18B1 LC E55A (antibody, human IgG1, kappa, V domains shown) VH: EVQLVESGGGLVQPGRSLRLSCAASGFTFDDHAMHWVRQAPGKGLEWVSGISWNSRGIGYADSVKGRFTIFRDNAKNSLYLQMNSLRAEDTALYYCAKDEYSRGYYVLDVWGQGTTVTVSS VL: AIQLTQSPSSLSASVGDRVTITCRASQGISSALAWYQQKPGKAPKLLIYDASSLASGVPSRFSGSGSGTDFTLTISSLQPEDFATYYCQQFNSYPLWITFGQGTRLEIKR | 0.57 | 0.23 | – | –
18B1 LC F91A (antibody, human IgG1, kappa, V domains shown) VH: EVQLVESGGGLVQPGRSLRLSCAASGFTFDDHAMHWVRQAPGKGLEWVSGISWNSRGIGYADSVKGRFTIFRDNAKNSLYLQMNSLRAEDTALYYCAKDEYSRGYYVLDVWGQGTTVTVSS VL: AIQLTQSPSSLSASVGDRVTITCRASQGISSALAWYQQKPGKAPKLLIYDASSLESGVPSRFSGSGSGTDFTLTISSLQPEDFATYYCQQANSYPLWITFGQGTRLEIKR | – | – | 0.19 | 0.05
18B1 LC G28A (antibody, human IgG1, kappa, V domains shown) VH: EVQLVESGGGLVQPGRSLRLSCAASGFTFDDHAMHWVRQAPGKGLEWVSGISWNSRGIGYADSVKGRFTIFRDNAKNSLYLQMNSLRAEDTALYYCAKDEYSRGYYVLDVWGQGTTVTVSS VL: AIQLTQSPSSLSASVGDRVTITCRASQAISSALAWYQQKPGKAPKLLIYDASSLESGVPSRFSGSGSGTDFTLTISSLQPEDFATYYCQQFNSYPLWITFGQGTRLEIKR | – | – | 0.85 | 1.05
18B1 LC I29A (antibody, human IgG1, kappa, V domains shown) VH: EVQLVESGGGLVQPGRSLRLSCAASGFTFDDHAMHWVRQAPGKGLEWVSGISWNSRGIGYADSVKGRFTIFRDNAKNSLYLQMNSLRAEDTALYYCAKDEYSRGYYVLDVWGQGTTVTVSS VL: AIQLTQSPSSLSASVGDRVTITCRASQGASSALAWYQQKPGKAPKLLIYDASSLESGVPSRFSGSGSGTDFTLTISSLQPEDFATYYCQQFNSYPLWITFGQGTRLEIKR | – | – | 1.46 | 1.44
18B1 LC L33A (antibody, human IgG1, kappa, V domains shown) VH: EVQLVESGGGLVQPGRSLRLSCAASGFTFDDHAMHWVRQAPGKGLEWVSGISWNSRGIGYADSVKGRFTIFRDNAKNSLYLQMNSLRAEDTALYYCAKDEYSRGYYVLDVWGQGTTVTVSS VL: AIQLTQSPSSLSASVGDRVTITCRASQGISSAAAWYQQKPGKAPKLLIYDASSLESGVPSRFSGSGSGTDFTLTISSLQPEDFATYYCQQFNSYPLWITFGQGTRLEIKR | – | – | 1.08 | 1.05
18B1 LC L54A (antibody, human IgG1, kappa, V domains shown) VH: EVQLVESGGGLVQPGRSLRLSCAASGFTFDDHAMHWVRQAPGKGLEWVSGISWNSRGIGYADSVKGRFTIFRDNAKNSLYLQMNSLRAEDTALYYCAKDEYSRGYYVLDVWGQGTTVTVSS VL: AIQLTQSPSSLSASVGDRVTITCRASQGISSALAWYQQKPGKAPKLLIYDASSAESGVPSRFSGSGSGTDFTLTISSLQPEDFATYYCQQFNSYPLWITFGQGTRLEIKR | 0.93 | 0.99 | – | –
18B1 LC N92A (antibody, human IgG1, kappa, V domains shown) VH: EVQLVESGGGLVQPGRSLRLSCAASGFTFDDHAMHWVRQAPGKGLEWVSGISWNSRGIGYADSVKGRFTIFRDNAKNSLYLQMNSLRAEDTALYYCAKDEYSRGYYVLDVWGQGTTVTVSS VL: AIQLTQSPSSLSASVGDRVTITCRASQGISSALAWYQQKPGKAPKLLIYDASSLESGVPSRFSGSGSGTDFTLTISSLQPEDFATYYCQQFASYPLWITFGQGTRLEIKR | – | – | 0.63 | 0.34
18B1 LC P95A (antibody, human IgG1, kappa, V domains shown) VH: EVQLVESGGGLVQPGRSLRLSCAASGFTFDDHAMHWVRQAPGKGLEWVSGISWNSRGIGYADSVKGRFTIFRDNAKNSLYLQMNSLRAEDTALYYCAKDEYSRGYYVLDVWGQGTTVTVSS VL: AIQLTQSPSSLSASVGDRVTITCRASQGISSALAWYQQKPGKAPKLLIYDASSLESGVPSRFSGSGSGTDFTLTISSLQPEDFATYYCQQFNSYALWITFGQGTRLEIKR | – | – | 0.08 | 0.03
18B1 LC Q27A (antibody, human IgG1, kappa, V domains shown) VH: EVQLVESGGGLVQPGRSLRLSCAASGFTFDDHAMHWVRQAPGKGLEWVSGISWNSRGIGYADSVKGRFTIFRDNAKNSLYLQMNSLRAEDTALYYCAKDEYSRGYYVLDVWGQGTTVTVSS VL: AIQLTQSPSSLSASVGDRVTITCRASAGISSALAWYQQKPGKAPKLLIYDASSLESGVPSRFSGSGSGTDFTLTISSLQPEDFATYYCQQFNSYPLWITFGQGTRLEIKR | – | – | 1.06 | 1.27
18B1 LC Q90A (antibody, human IgG1, kappa, V domains shown) VH: EVQLVESGGGLVQPGRSLRLSCAASGFTFDDHAMHWVRQAPGKGLEWVSGISWNSRGIGYADSVKGRFTIFRDNAKNSLYLQMNSLRAEDTALYYCAKDEYSRGYYVLDVWGQGTTVTVSS VL: AIQLTQSPSSLSASVGDRVTITCRASQGISSALAWYQQKPGKAPKLLIYDASSLESGVPSRFSGSGSGTDFTLTISSLQPEDFATYYCQAFNSYPLWITFGQGTRLEIKR | – | – | 1.46 | 1.63
18B1 LC S26A (antibody, human IgG1, kappa, V domains shown) VH: EVQLVESGGGLVQPGRSLRLSCAASGFTFDDHAMHWVRQAPGKGLEWVSGISWNSRGIGYADSVKGRFTIFRDNAKNSLYLQMNSLRAEDTALYYCAKDEYSRGYYVLDVWGQGTTVTVSS VL: AIQLTQSPSSLSASVGDRVTITCRAAQGISSALAWYQQKPGKAPKLLIYDASSLESGVPSRFSGSGSGTDFTLTISSLQPEDFATYYCQQFNSYPLWITFGQGTRLEIKR | – | – | 1.28 | 1.32
18B1 LC S30A (antibody, human IgG1, kappa, V domains shown) VH: EVQLVESGGGLVQPGRSLRLSCAASGFTFDDHAMHWVRQAPGKGLEWVSGISWNSRGIGYADSVKGRFTIFRDNAKNSLYLQMNSLRAEDTALYYCAKDEYSRGYYVLDVWGQGTTVTVSS VL: AIQLTQSPSSLSASVGDRVTITCRASQGIASALAWYQQKPGKAPKLLIYDASSLESGVPSRFSGSGSGTDFTLTISSLQPEDFATYYCQQFNSYPLWITFGQGTRLEIKR | – | – | 0.88 | 0.7
18B1 LC S31A (antibody, human IgG1, kappa, V domains shown) VH: EVQLVESGGGLVQPGRSLRLSCAASGFTFDDHAMHWVRQAPGKGLEWVSGISWNSRGIGYADSVKGRFTIFRDNAKNSLYLQMNSLRAEDTALYYCAKDEYSRGYYVLDVWGQGTTVTVSS VL: AIQLTQSPSSLSASVGDRVTITCRASQGISAALAWYQQKPGKAPKLLIYDASSLESGVPSRFSGSGSGTDFTLTISSLQPEDFATYYCQQFNSYPLWITFGQGTRLEIKR | – | – | 0.74 | 0.6
18B1 LC S52A (antibody, human IgG1, kappa, V domains shown) VH: EVQLVESGGGLVQPGRSLRLSCAASGFTFDDHAMHWVRQAPGKGLEWVSGISWNSRGIGYADSVKGRFTIFRDNAKNSLYLQMNSLRAEDTALYYCAKDEYSRGYYVLDVWGQGTTVTVSS VL: AIQLTQSPSSLSASVGDRVTITCRASQGISSALAWYQQKPGKAPKLLIYDAASLESGVPSRFSGSGSGTDFTLTISSLQPEDFATYYCQQFNSYPLWITFGQGTRLEIKR | 0.93 | 1.09 | – | –
18B1 LC S53A (antibody, human IgG1, kappa, V domains shown) VH: EVQLVESGGGLVQPGRSLRLSCAASGFTFDDHAMHWVRQAPGKGLEWVSGISWNSRGIGYADSVKGRFTIFRDNAKNSLYLQMNSLRAEDTALYYCAKDEYSRGYYVLDVWGQGTTVTVSS VL: AIQLTQSPSSLSASVGDRVTITCRASQGISSALAWYQQKPGKAPKLLIYDASALESGVPSRFSGSGSGTDFTLTISSLQPEDFATYYCQQFNSYPLWITFGQGTRLEIKR | 0.79 | 1.07 | – | –
18B1 LC S93A (antibody, human IgG1, kappa, V domains shown) VH: EVQLVESGGGLVQPGRSLRLSCAASGFTFDDHAMHWVRQAPGKGLEWVSGISWNSRGIGYADSVKGRFTIFRDNAKNSLYLQMNSLRAEDTALYYCAKDEYSRGYYVLDVWGQGTTVTVSS VL: AIQLTQSPSSLSASVGDRVTITCRASQGISSALAWYQQKPGKAPKLLIYDASSLESGVPSRFSGSGSGTDFTLTISSLQPEDFATYYCQQFNAYPLWITFGQGTRLEIKR | – | – | 1.86 | 1.84
18B1 LC T97A (antibody, V domains shown, copies: 2 + 2) VH: EVQLVESGGGLVQPGRSLRLSCAASGFTFDDHAMHWVRQAPGKGLEWVSGISWNSRGIGYADSVKGRFTIFRDNAKNSLYLQMNSLRAEDTALYYCAKDEYSRGYYVLDVWGQGTTVTVSS VL: AIQLTQSPSSLSASVGDRVTITCRASQGISSALAWYQQKPGKAPKLLIYDASSLESGVPSRFSGSGSGTDFTLTISSLQPEDFATYYCQQFNSYPLWIAFGQGTRLEIKR | – | – | 1.16 | 0.92

— patent publication US20220017627A1 (Bristol-Myers Squibb, published 2022)
